The conditions of data set [1]: cited from earlier work.
The conditions of data set [2]: cited from earlier work. The source holds these as a separate data set.
Data set [3] can be described thus: Analytical size exclusion chromatography (apparent MW, hydrodynamic radius). In kind it is physicochemical. The following applies: for Apparent MW / RH (hydrodynamic radius): SEC; for Apparent Molecular Weight Factor: ratio of apparent molecular weight to calculated molecular weight. The method, then: Size exclusion chromatography analyses were performed on fusion proteins containing various therapeutic proteins and unstructured recombinant proteins of increasing length. […] Chromatogram profiles were monitored using OD214 nm and OD280 nm.

The target in data set [4] is human recombinant GLP-2 glucagon family receptor (human) (UniProt O95838). As to the kind of experiment: cell-based or functional assay.
UniProt O95838, sequence (O95838 whole entry): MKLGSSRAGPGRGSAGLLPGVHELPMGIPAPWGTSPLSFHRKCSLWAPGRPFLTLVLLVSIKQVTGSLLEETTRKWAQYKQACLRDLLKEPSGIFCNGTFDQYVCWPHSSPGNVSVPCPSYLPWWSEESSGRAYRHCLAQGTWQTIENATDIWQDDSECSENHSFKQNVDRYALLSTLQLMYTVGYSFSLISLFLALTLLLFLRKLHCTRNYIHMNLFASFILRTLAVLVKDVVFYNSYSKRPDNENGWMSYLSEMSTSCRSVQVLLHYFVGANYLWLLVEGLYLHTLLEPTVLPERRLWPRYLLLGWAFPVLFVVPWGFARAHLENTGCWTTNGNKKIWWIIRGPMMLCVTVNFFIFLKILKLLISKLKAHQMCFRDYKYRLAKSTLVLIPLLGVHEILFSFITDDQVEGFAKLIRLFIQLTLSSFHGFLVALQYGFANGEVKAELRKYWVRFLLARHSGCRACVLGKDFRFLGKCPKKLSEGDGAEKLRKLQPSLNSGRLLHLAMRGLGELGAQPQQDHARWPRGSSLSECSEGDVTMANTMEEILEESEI
Setting [5] is: unmodified peptide/protein, humans/patients.
The mark [6] stands for this setting: unmodified peptide (GLP-1: biological half-life).
Where [7] appears, read: unmodified peptide/protein, humans (oxyntomodulin: in human plasma; ghrelin: terminal half-life).

Read-outs that look alike come from different tables or passages of the source. Numbered stars: 1 amine (or outer) side, 2 acyl side, 3 side chain; on linkers, the order of the positions; unused ones are H or OH. Square brackets hold non-standard residues; d marks the D form. Side chains are listed from the residue outwards. Ends that are not written are not given here. Peptide text beside a SMILES is read from it. * marks the point of attachment. Ethylenediamine = C(CN[*:2])N[*:1]; Hyp = O=C(O)[C@@H]1C[C@@H](O)CN1; Phg = N[C@H](C(=O)O)c1ccccc1; CO = O=C([*:1])[*:2]; Bn = c1ccc(C*)cc1

Usually half-life stands for the time in which the quantity being followed falls by half. For the molecule enfuvirtide, in data set [1] (setting [5]), the half-life is 228 min. Turning to “ghrelin: human hormone GSSFLSPEHQRVQQRKESKKPPAKLQPR (SEQ ID NO: 557) (listed as Homo sapiens)”, in data set [1] (human, in vivo), the half-life was 10 to 30 min. As for “α-MSH: 13-amino acid peptide N-Ac-SYSMGFRWGLPV (SEQ ID NO: 564) (not fully specified; printed as N-Ac-SYSMGFRWGLPV; ends and bridges not checked)”, the half-life entry in data set [2] (unmodified form, in words) was “mere seconds”. For AC616: fusion: XTEN AE864, GLP2-2G, in data set [3], the “Apparent MW” value came to 1427 kDa, the “RH (hydrodynamic radius)” value was 10 nm and the “Apparent Molecular Weight Factor” value is recorded as 17.2. Take CNP-22: the half-life in data set [2] (unmodified peptide/protein (Fxa: plasma half-life)) is listed as 2.6 min.

Regarding `NCCCC[C@@H]1NC(=O)[C@@H](Cc2c[nH]c3ccccc23)NC(=O)[C@H](c2ccccc2)NC(=O)[C@@H]2C[C@@H](OC(=O)NCCN)CN2C(=O)[C@H](Cc2ccccc2)NC(=O)[C@H](Cc2ccc(OCc3ccccc3)cc2)NC1=O` [Pasireotide, [(3S,6S,9S,12R,15S,18S,20R)-9-(4-aminobutyl)-3-benzyl-12-(1H-indol-3-ylmethyl)-2,5,8,11,14,17-hexaoxo-15-phenyl-6-[(4-phenylmethoxyphenyl)methyl]-1,4,7,10,13,16-hexazabicyclo[16.3.0]henicosan-20-yl] N-(2-aminoethyl)carbamate, reference compound] (cyclo([Hyp]([CO-Ethylenediamine])[Phg][dW]KY(Bn)F)), in data set [1] (setting [5]), the half-life is 720 to 1020 min. With “GHRH: 44-amino acid peptide hormone (SEQ ID NO: 542)”, the half-life result in data set [2] (setting [6]) is given as “less than 15 minutes”. Take “POT4: synthetic cyclic peptide H-Ile-[Cys-Val-Val-Gln-Asp-Trp-Gly-His-His-Arg-Cys]-Thr-NH2, C3 complement inhibitor [reference compound]”: the “circulating in vivo half-life” value in data set [2] (in vivo) is 480 min. As to “oxyntomodulin: 37 amino acid peptide (SEQ ID NO: 552)”, the half-life in data set [1] (human, in vivo) is reported as about 12 min.

In the case of “metreleptin: the commercially available form of leptin [reference compound]”, in data set [1] (setting [7]), the half-life is 8 to 30 min. Consider “IL-7: human interleukin encoded by the IL7 gene (SEQ ID NO: 562)”, for which the half-life entry in data set [1] (setting [5]) is on record as “approximately 10 h”. As for “GLP-(7-37)OH: form of human glucagon like peptide-1 (HAEGTFTSDVSSTLEGQAALEFIAWLVKGRG; listed as Homo sapiens)”, the half-life in data set [2] (setting [6]) is 3 to 5 min. As for “C-peptide: human pancreatic protein, middle segment of proinsulin (SEQ ID NO: 556) (EAEDLQVGQVELGGGPGAGSLQPLALEGSLQ; listed as Homo sapiens)”, the half-life entry in data set [1] (unmodified peptide, humans) was “about 30 minutes”. On to relaxin, for which the half-life result in data set [1] (setting [7]) is “less than 10 min”.

B1: conjugate GLP2-2G-XTEN (protein, part only; not given: added cysteine position, not shown: small tags and cut ends)
peptide, part: HGDGSFSDEMNTILDNLAARDFINWLIQTKITD
chain: GSPGSPAGSPTSTEEGTSESATPESGPGTSTEPSEGSAPGSPAGSPTSTEEGTSTEPSEGSAPGTSTEPSEGSAPGTSESATPESGPGSEPATSGSETPGSEPATSGSETPGSPAGSPTSTEEGTSESATPESGPGTSTEPSEGSAPGTSTEPSEGSAPGSPAGSPTSTEEGTSTEPSEGSAPGTSTEPSEGSAPGTSESATPESGPGTSTEPSEGSAPGTSESATPESGPGSEPATSGSETPGTSTEPSEGSAPGTSTEPSEGSAPGTSESATPESGPGTSESATPESGPGSPAGSPTSTEEGTSESATPESGPGSEPATSGSETPGTSESATPESGPGTSTEPSEGSAPGTSTEPSEGSAPGTSTEPSEGSAPGTSTEPSEGSAPGTSTEPSEGSAPGTSTEPSEGSAPGSPAGSPTSTEEGTSTEPSEGSAPGTSESATPESGPGSEPATSGSETPGTSESATPESGPGSEPATSGSETPGTSESATPESGPGTSTEPSEGSAPGTSESATPESGPGSPAGSPTSTEEGSPAGSPTSTEEGSPAGSPTSTEEGTSESATPESGPGTSTEPSEGSAPGTSESATPESGPGSEPATSGSETPGTSESATPESGPGSEPATSGSETPGTSESATPESGPGTSTEPSEGSAPGSPAGSPTSTEEGTSESATPESGPGSEPATSGSETPGTSESATPESGPGSPAGSPTSTEEGSPAGSPTSTEEGTSTEPSEGSAPGTSESATPESGPGTSESATPESGPGTSESATPESGPGSEPATSGSETPGSEPATSGSETPGSPAGSPTSTEEGTSTEPSEGSAPGTSTEPSEGSAPGSEPATSGSETPGTSESATPESGPGTSTEPSEGSAPGR
modifications: N-terminal alpha-amino group modified with sulfo-SMCC and linked to GLP2-Cys; added cysteine thiol linked through the sulfo-SMCC cross-linker (maleimide) to the N-terminal alpha-amino group of the XTEN chain
As to B1, the GPCR Ca2+ flux mobilization, EC50 in data set [4] turned out to be 529 nM.

B2: Glucagon-Y288: fusion protein of glucagon plus XTEN Y288 (protein)
chain: HSQGTFTSDYSKYLDSRRAQDFVQWLMNTGEGSGEGSEGEGSEGSGEGEGSEGSGEGEGGSEGSEGEGGSEGSEGEGGSEGSEGEGSGEGSEGEGGSEGSEGEGSGEGSEGEGSEGGSEGEGGSEGSEGEGSGEGSEGEGGEGGSEGEGSEGSGEGEGSGEGSEGEGSEGSGEGEGSGEGSEGEGSEGSGEGEGSEGSGEGEGGSEGSEGEGSEGSGEGEGGEGSGEGEGSGEGSEGEGGGEGSEGEGSGEGGEGEGSEGGSEGEGGSEGGEGEGSEGSGEGEGSEGGSEGEGSEGGSEGEGSEGSGEGEGSEGSGE
Take B2: in data set [3], the “Apparent MW” value is given as 370 kDa, the “RH (hydrodynamic radius)” value was determined as 7.0 nm and the “Apparent Molecular Weight Factor” value is listed as 12.9.

B3: AC404: fusion: XTEN AE864, FVII (protein)
chain: AVFVTQEEAHGVLHRRRRANAFLEELRPGSLERECKEEQCSFEEAREIFKDAERTKLFWISYSDGDQCASSPCQNGGSCKDQLQSYICFCLPAFEGRNCETHKDDQLICVNENGGCEQYCSDHTGTKRSCRCHEGYSLLADGVSCTPTVEYPCGKIPILEKRNASKPQGRIVGGKVCPKGECPWQVLLLVNGAQLCGGTLINTIWVVSAAHCFDKIKNWRNLIAVLGEHDLSEHDGDEQSRRVAQVIIPSTYVPGTTNHDIALLRLHQPVVLTDHVVPLCLPERTFSERTLAFVRFSLVSGWGQLLDRGATALELMVLNVPRLMTQDCLQQSRKVGDSPNITEYMFCAGYSDGSKDSCKGDSGGPHATHYRGTWYLTGIVSWGQGCATVGHFGVYTRVSQYIEWLQKLMRSEPRPGVLLRAPFPGSPGSPAGSPTSTEEGTSESATPESGPGTSTEPSEGSAPGSPAGSPTSTEEGTSTEPSEGSAPGTSTEPSEGSAPGTSESATPESGPGSEPATSGSETPGSEPATSGSETPGSPAGSPTSTEEGTSESATPESGPGTSTEPSEGSAPGTSTEPSEGSAPGSPAGSPTSTEEGTSTEPSEGSAPGTSTEPSEGSAPGTSESATPESGPGTSTEPSEGSAPGTSESATPESGPGSEPATSGSETPGTSTEPSEGSAPGTSTEPSEGSAPGTSESATPESGPGTSESATPESGPGSPAGSPTSTEEGTSESATPESGPGSEPATSGSETPGTSESATPESGPGTSTEPSEGSAPGTSTEPSEGSAPGTSTEPSEGSAPGTSTEPSEGSAPGTSTEPSEGSAPGTSTEPSEGSAPGSPAGSPTSTEEGTSTEPSEGSAPGTSESATPESGPGSEPATSGSETPGTSESATPESGPGSEPATSGSETPGTSESATPESGPGTSTEPSEGSAPGTSESATPESGPGSPAGSPTSTEEGSPAGSPTSTEEGSPAGSPTSTEEGTSESATPESGPGTSTEPSEGSAPGTSESATPESGPGSEPATSGSETPGTSESATPESGPGSEPATSGSETPGTSESATPESGPGTSTEPSEGSAPGSPAGSPTSTEEGTSESATPESGPGSEPATSGSETPGTSESATPESGPGSPAGSPTSTEEGSPAGSPTSTEEGTSTEPSEGSAPGTSESATPESGPGTSESATPESGPGTSESATPESGPGSEPATSGSETPGSEPATSGSETPGSPAGSPTSTEEGTSTEPSEGSAPGTSTEPSEGSAPGSEPATSGSETPGTSESATPESGPGTSTEPSEGSAPGSSS
With B3, in data set [3], the “Apparent MW” value is recorded as 1900 kDa, the “RH (hydrodynamic radius)” value worked out at 10.1 nm and the “Apparent Molecular Weight Factor” value is 14.7.

B4: AC398: fusion: XTEN AE288, FVII (protein)
chain: AVFVTQEEAHGVLHRRRRANAFLEELRPGSLERECKEEQCSFEEAREIFKDAERTKLFWISYSDGDQCASSPCQNGGSCKDQLQSYICFCLPAFEGRNCETHKDDQLICVNENGGCEQYCSDHTGTKRSCRCHEGYSLLADGVSCTPTVEYPCGKIPILEKRNASKPQGRIVGGKVCPKGECPWQVLLLVNGAQLCGGTLINTIWVVSAAHCFDKIKNWRNLIAVLGEHDLSEHDGDEQSRRVAQVIIPSTYVPGTTNHDIALLRLHQPVVLTDHVVPLCLPERTFSERTLAFVRFSLVSGWGQLLDRGATALELMVLNVPRLMTQDCLQQSRKVGDSPNITEYMFCAGYSDGSKDSCKGDSGGPHATHYRGTWYLTGIVSWGQGCATVGHFGVYTRVSQYIEWLQKLMRSEPRPGVLLRAPFPGSPGTSESATPESGPGSEPATSGSETPGTSESATPESGPGSEPATSGSETPGTSESATPESGPGTSTEPSEGSAPGSPAGSPTSTEEGTSESATPESGPGSEPATSGSETPGTSESATPESGPGSPAGSPTSTEEGSPAGSPTSTEEGTSTEPSEGSAPGTSESATPESGPGTSESATPESGPGTSESATPESGPGSEPATSGSETPGSEPATSGSETPGSPAGSPTSTEEGTSTEPSEGSAPGTSTEPSEGSAPGSEPATSGSETPGTSESATPESGPGTSTEPSEGSAPGSSS
As for B4, in data set [3], the “Apparent MW” value was 650 kDa, the “RH (hydrodynamic radius)” value was 8.2 nm and the “Apparent Molecular Weight Factor” value is given as 8.5.

B5: Endostatin: 20-kDa C-terminal fragment derived from type XVIII collagen (SEQ ID NO: 565) (protein, listed as Homo sapiens)
chain: HSHRDFQPVLHLVALNSPLSGGMRGIRGADFQCFQQARAVGLAGTFRAFLSSRLQDLYSIVRRADRAAVPIVNLKDELLFPSWEALFSGSEGPLKPGARIFSFDGKDVLRHPTWPQKSVWHGSDPNGRRLTESYCETWRTEAPSATGQASSLLGGRLLGQSAASCHHAYIVLCIENSFMTASK
In the case of B5, the half-life in data set [1] (setting [5]) is 780 min.

These data come from patent publication US10172953B2, “XTEN conjugate compositions and methods of making same” (Amunix Operating Inc., priority 2012, dated 2019).
